Assays:
[1] = target: PomZ (Myxococcus xanthus) (UniProt Q1DEM0)
[2] = test system: His6-PomZ (Myxococcus xanthus (DK1622?)); experiment: BLI; details: 1 mM ATP, 10 mM MgCl2; 5' biotin-TEG on both strands; BLI: 50 mM HEPES/NaOH pH 7.2, 50 mM KCl, 0.1 mM EDTA, 10% glycerol, 10 mM MgCl2, 1 mM β-mercaptoethanol, 0.05% Tween 20, 1 mM ATP; 100 nM DNA loaded; assay …
[3] = target: T1, His6-PomZ (Myxococcus xanthus (DK1622?)) (UniProt Q1DEM0); experiment: BLI; details: 5' biotin-TEG on both strands; BLI: 50 mM HEPES/NaOH pH 7.2, 50 mM KCl, 0.1 mM EDTA, 10% glycerol, 10 mM MgCl2, 1 mM β-mercaptoethanol, 0.05% Tween 20, 1 mM …; 100 nM DNA loaded; assay temp
T1 sequence: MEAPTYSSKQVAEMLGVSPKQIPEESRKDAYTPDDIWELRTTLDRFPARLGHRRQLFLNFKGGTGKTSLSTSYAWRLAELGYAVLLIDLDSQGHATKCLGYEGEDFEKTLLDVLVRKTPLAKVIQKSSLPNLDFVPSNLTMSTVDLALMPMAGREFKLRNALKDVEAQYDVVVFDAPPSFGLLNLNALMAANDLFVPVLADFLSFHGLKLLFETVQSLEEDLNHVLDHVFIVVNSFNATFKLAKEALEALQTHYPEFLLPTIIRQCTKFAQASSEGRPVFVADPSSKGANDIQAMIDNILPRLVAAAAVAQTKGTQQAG

[4] = target: T2, PomY624-682-mCh (gD domain) (Myxococcus xanthus (DK1622?)) (UniProt Q1DEM1); experiment: BLI; details: 5' biotin-TEG on both strands; BLI: 50 mM HEPES/NaOH pH 7.2, 50 mM KCl, 0.1 mM EDTA, 10% glycerol, 10 mM MgCl2, 1 mM β-mercaptoethanol, 0.05% Tween 20, 1 mM …; 100 nM DNA loaded; assay temp
T2 sequence: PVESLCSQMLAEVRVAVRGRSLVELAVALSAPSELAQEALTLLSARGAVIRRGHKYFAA

Substance: His6-Sumo-PomY^496-682-mCh (domain or fragment)
- specific His6-PomZ ATPase activity (NADH-coupled assay, 4 µM His6-PomZ, with DNA) with purified Sumo-PomY^496-682-mCh, 2 to 10 µM (ATP h^-1 µM^-1) [1]: 11.6

Substance: cluster3 promoter PCR fragment
- Kd [2]: 24.3 µM

Substance: GGGCCACCAAGCCCACCGCCGGCTCCAAGCGGCGGCGCCTGGAAGGCAAGAAGCGCACCTCCGAAAAAAAGGCCCTGAGAAACAGCAAATCCGGCTGGTGACCCAGGGTCCATCAGGACTCCAGTCACCCTGTCGCCGGACAGTCAGGGTGCGCCTAAAGTTTGCGAGCTCGCAGACGTTGCGAGGTCATCTGCTGCTCGCAGGGACCTCCTCCTGGGAATTTGCC (double strand) [cluster3 promoter PCR fragment]
- Kd [3]: 24.3 µM
- binding [4]: no binding
